Sequences and labels used below:
B1: IGE156 (peptide)
peptide: VQCPHFCYELDYELCPDVCYVGR
modifications: not fully specified (bridges); cysteine pairing not given here
notes: produced as Z-domain fusion in E. coli and released with trypsin
B2: IGE169 (peptide)
peptide: VQCPHFCYFGAELCPAVCYV-NH2
modifications: disulfide 7-14, 3-18; N-terminus assumed
SMILES: CC(C)C[C@@H]1NC(=O)[C@H](CCC(=O)O)NC(=O)[C@H](C)NC(=O)CNC(=O)[C@H](Cc2ccccc2)NC(=O)[C@H](Cc2ccc(O)cc2)NC(=O)[C@@H]2CSSC[C@H](NC1=O)C(=O)N1CCC[C@H]1C(=O)N[C@@H](C)C(=O)N[C@@H](C(C)C)C(=O)N[C@H](C(=O)N[C@@H](Cc1ccc(O)cc1)C(=O)N[C@H](C(N)=O)C(C)C)CSSC[C@H](NC(=O)[C@H](CCC(N)=O)NC(=O)[C@@H](N)C(C)C)C(=O)N1CCC[C@H]1C(=O)N[C@@H](Cc1c[nH]cn1)C(=O)N[C@@H](Cc1ccccc1)C(=O)N2
B3: IGE146 (peptide)
peptide: VQCPHFCYVGEALCPDVCYV-NH2
modifications: disulfide 7-14, 3-18; N-terminus assumed
SMILES: CC(C)C[C@@H]1NC(=O)[C@H](C)NC(=O)[C@H](CCC(=O)O)NC(=O)CNC(=O)[C@H](C(C)C)NC(=O)[C@H](Cc2ccc(O)cc2)NC(=O)[C@@H]2CSSC[C@H](NC1=O)C(=O)N1CCC[C@H]1C(=O)N[C@@H](CC(=O)O)C(=O)N[C@@H](C(C)C)C(=O)N[C@H](C(=O)N[C@@H](Cc1ccc(O)cc1)C(=O)N[C@H](C(N)=O)C(C)C)CSSC[C@H](NC(=O)[C@H](CCC(N)=O)NC(=O)[C@@H](N)C(C)C)C(=O)N1CCC[C@H]1C(=O)N[C@@H](Cc1c[nH]cn1)C(=O)N[C@@H](Cc1ccccc1)C(=O)N2
B4: IGE159 (peptide)
peptide: VQC[NMeA]HFCYFGGAELCPDVCYV-NH2
modifications: disulfide 7-15, 3-19; N-terminus assumed
SMILES: CC(C)C[C@@H]1NC(=O)[C@H](CCC(=O)O)NC(=O)[C@H](C)NC(=O)CNC(=O)CNC(=O)[C@H](Cc2ccccc2)NC(=O)[C@H](Cc2ccc(O)cc2)NC(=O)[C@@H]2CSSC[C@H](NC1=O)C(=O)N1CCC[C@H]1C(=O)N[C@@H](CC(=O)O)C(=O)N[C@@H](C(C)C)C(=O)N[C@H](C(=O)N[C@@H](Cc1ccc(O)cc1)C(=O)N[C@H](C(N)=O)C(C)C)CSSC[C@H](NC(=O)[C@H](CCC(N)=O)NC(=O)[C@@H](N)C(C)C)C(=O)N(C)[C@@H](C)C(=O)N[C@@H](Cc1c[nH]cn1)C(=O)N[C@@H](Cc1ccccc1)C(=O)N2
B5: IGE158 (peptide)
peptide: VQCPHFCYFGGAELC[NMeA]DVCYV-NH2
modifications: disulfide 7-15, 3-19; N-terminus assumed
SMILES: CC(C)C[C@@H]1NC(=O)[C@H](CCC(=O)O)NC(=O)[C@H](C)NC(=O)CNC(=O)CNC(=O)[C@H](Cc2ccccc2)NC(=O)[C@H](Cc2ccc(O)cc2)NC(=O)[C@@H]2CSSC[C@H](NC1=O)C(=O)N(C)[C@@H](C)C(=O)N[C@@H](CC(=O)O)C(=O)N[C@@H](C(C)C)C(=O)N[C@H](C(=O)N[C@@H](Cc1ccc(O)cc1)C(=O)N[C@H](C(N)=O)C(C)C)CSSC[C@H](NC(=O)[C@H](CCC(N)=O)NC(=O)[C@@H](N)C(C)C)C(=O)N1CCC[C@H]1C(=O)N[C@@H](Cc1c[nH]cn1)C(=O)N[C@@H](Cc1ccccc1)C(=O)N2
B6: IGE167 (peptide)
peptide: VQCPHFCYFGAELCPDVCYV-NH2
modifications: disulfide 7-14, 3-18; N-terminus assumed
SMILES: CC(C)C[C@@H]1NC(=O)[C@H](CCC(=O)O)NC(=O)[C@H](C)NC(=O)CNC(=O)[C@H](Cc2ccccc2)NC(=O)[C@H](Cc2ccc(O)cc2)NC(=O)[C@@H]2CSSC[C@H](NC1=O)C(=O)N1CCC[C@H]1C(=O)N[C@@H](CC(=O)O)C(=O)N[C@@H](C(C)C)C(=O)N[C@H](C(=O)N[C@@H](Cc1ccc(O)cc1)C(=O)N[C@H](C(N)=O)C(C)C)CSSC[C@H](NC(=O)[C@H](CCC(N)=O)NC(=O)[C@@H](N)C(C)C)C(=O)N1CCC[C@H]1C(=O)N[C@@H](Cc1c[nH]cn1)C(=O)N[C@@H](Cc1ccccc1)C(=O)N2

Bridges are numbered along the chain shown (N, C = ends). Where no end group is shown, it is not given here. [ ]: non-standard residue; d: D form. Pip = O=C(O)[C@@H]1CCCCN1; dPip = O=C(O)[C@H]1CCCCN1; hCys = N[C@@H](CCS)C(=O)O; NMeA = CN[C@@H](C)C(=O)O

For the test, the target named is T1, alpha subunit of the human FcεRI receptor (IgE high affinity receptor), expressed on Chinese hamster ovary … (human, UniProt P12319 26-257).
T1 construct: whole, on cells; also called CHO FcεRI+ cells; FcεRIα
T1 sequence (looked up): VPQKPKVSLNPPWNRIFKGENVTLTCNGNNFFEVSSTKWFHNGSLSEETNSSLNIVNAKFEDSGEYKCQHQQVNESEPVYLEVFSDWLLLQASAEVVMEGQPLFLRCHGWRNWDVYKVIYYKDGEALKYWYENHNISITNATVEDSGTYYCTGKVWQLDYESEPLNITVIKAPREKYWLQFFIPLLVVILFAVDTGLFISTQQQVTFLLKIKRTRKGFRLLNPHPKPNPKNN
As to the kind of experiment: inhibition of 125I-IgE binding to CHO cells expressing human FcεRI alpha; competitor IgE. As for the experimental part: To determine the ability of peptides to inhibit IgE binding to FcεRI, a cell-based binding assay was used with radiolabeled IgE. Chinese hamster ovary cells expressing the alpha subunit of the human FcεRI receptor were cultured overnight in Falcon 96 well microtiter plates at a concentration of 5 ×10^4 cells per well. The following day the cells were rinsed three times with PBS and then once with F12/DMEM. Peptide stocks were reconstituted in 100 mM Hepes buffered water, pH 7.2, at a concentration of 5 mg/mL. Working concentrations of the peptide were diluted in assay buffer (see below). 75 uL of a desired concentration of peptide was added to the top row of a separate 96 well microtiter plate and serially diluted 1:3 in 50 uL of the assay buffer (F12/DMEM, 1% BSA, 0.05% NaN_3 and 0.025 mM Hepes pH 7.2). Starting concentrations ranged from 50–500 uM. Next, 50 uL of the diluted peptide was transferred to the 96 microtiter well plate containing a monolayer of CHO FcεRI+ cells. […] Cells were […]
For B1, the IC50 stood at 30 nM.

Take VQCPHFCYFGAELCPDVCYV (disulfide 7-14, 3-18) [IGE152]: the IC50 is 52 nM.

As to B2, the half-inhibitory concentration (IC50) stood at 128 nM. As to VQCPHFCYFGGAEL[hCys]PDVCYV-NH2 (disulfide (positions not given here)) [IGE164], the IC50 worked out at 40700 nM. This IC50 is about 320-fold higher than that of the molecule before.

The molecule CPHFCYELDYELCPDVCY-NH2 (not fully specified (bridges); cysteine pairing not given here) [IGE155] returned an IC50 of 69 nM.

With VQCPHFCYFGGAELC[Pip]DVCYV-NH2 (disulfide 7-15, 3-19) [IGE161-2], the IC50 came to 680 nM. Take VQCPHFCYFGGAELC[dPip]DVCYV-NH2 (disulfide 7-15, 3-19) [IGE161-1]: the IC50 was determined as 41000 nM. The molecule B3 yielded an IC50 of 890 nM. Take VQCPHFCYFGGAELCPDVCYV-NH2 (cysteine pairing not given here) [IGE135]: the IC50 turned out to be 47 nM. Then VQCPDFCYFGGAELCPDVCYV-NH2 (not fully specified (bridges); cysteine pairing not given here) [IGE191], with 210 nM.

The molecule VQCPHFCYFGGAELCPGVCYV-NH2 (cysteine pairing not given here) [IGE136] came in with an IC50 of 119 nM. This IC50 is about 1.8-fold lower than that of the molecule before. B4 showed an IC50 of 380 nM. VQCPHFCYFGGAELCPDVCYV (not fully specified (bridges); cysteine pairing not given here) [IGE151] showed an IC50 of 130 nM. This IC50 lies about 2.9-fold lower than the previous one. Then B5, with 1080 nM; and B6, with 120 nM. Then VQCPHFCYFGGAELCPDV[hCys]YV-NH2 (disulfide (positions not given here)) [IGE165], with 1170 nM; and VQCPHFCYELDYELCPWKCYT-NH2 (not fully specified (bridges); cysteine pairing not given here) [IGE174], with 172 nM; and VQCPDFCYELDYELCPDVCYV-NH2 (not fully specified (bridges); cysteine pairing not given here) [IGE190], with 58 nM.

Consider VQCPHFCYELDYELCPWVCYV-NH2 (not fully specified (bridges); cysteine pairing not given here) [IGE175], for which the IC50 was 57 nM. The IC50 values of the last two molecules are within 1.5-fold of each other. Molecule VQCPHF[hCys]YFGGAELCPDVCYV-NH2 (disulfide 7-15, 3-19) [IGE166] came in with an IC50 of 65000 nM. The molecule QCPHFCYELDYELCPDVCY-NH2 (not fully specified (bridges); cysteine pairing not given here) [IGE157] displayed an IC50 of 107 nM. Consider VQC[dPip]HFCYFGGAELCPDVCYV-NH2 (disulfide 7-15, 3-19) [IGE162-1], for which the IC50 was determined as 4090 nM. Then IVCPRLCYELDYELCPDVCYV-NH2 (cysteine pairing not given here) [IGE141], with 131 nM; and VQC[Pip]HFCYFGGAELCPDVCYV-NH2 (disulfide 7-15, 3-19) [IGE162-2], with 430 nM. Then VQCPHFCYELDYELCPDVCY-NH2 (not fully specified (bridges); cysteine pairing not given here) [IGE153], with 49 nM.

Usually IC50 stands for the concentration at which inhibition is half-maximal.
